# T1: recombinant human IL-17F (SEQ ID NO: 77) (human, UniProt Q96PD4 31-163)
# T1 construct: homodimer; also called huIL-17F; rhuIL-17F
# T1 sequence: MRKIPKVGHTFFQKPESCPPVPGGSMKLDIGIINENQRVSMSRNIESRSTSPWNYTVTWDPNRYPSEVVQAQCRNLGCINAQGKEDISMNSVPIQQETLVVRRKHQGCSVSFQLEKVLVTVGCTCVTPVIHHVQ
# T2: recombinant mouse IL-12 (R&D Systems Cat#419-ML-010/CF) (mouse, UniProt P43431 23-215; P43432 23-335)
# T2 construct: coated at 0.5 µg/ml; also called mIL-12
# T2 sequence (looked up) 1: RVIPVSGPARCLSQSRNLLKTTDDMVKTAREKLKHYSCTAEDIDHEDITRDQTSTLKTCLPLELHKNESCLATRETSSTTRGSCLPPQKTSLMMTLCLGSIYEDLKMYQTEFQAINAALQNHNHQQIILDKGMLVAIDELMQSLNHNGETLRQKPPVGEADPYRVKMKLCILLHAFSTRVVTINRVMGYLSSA
# T2 sequence (looked up) 2: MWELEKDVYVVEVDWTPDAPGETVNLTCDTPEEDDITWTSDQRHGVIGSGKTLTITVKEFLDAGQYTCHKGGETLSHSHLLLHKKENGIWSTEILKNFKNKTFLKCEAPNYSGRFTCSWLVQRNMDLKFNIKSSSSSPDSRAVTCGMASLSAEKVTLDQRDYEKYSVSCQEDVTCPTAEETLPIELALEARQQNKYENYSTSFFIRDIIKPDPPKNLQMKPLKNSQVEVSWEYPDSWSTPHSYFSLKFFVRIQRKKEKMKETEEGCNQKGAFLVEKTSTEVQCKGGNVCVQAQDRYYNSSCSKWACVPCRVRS
# T3: recombinant mouse IL-17F (R&D Systems Cat#2057-IL/CF) (mouse, UniProt Q7TNI7 29-161)
# T3 construct: also called mIL-17F
# T3 sequence (looked up): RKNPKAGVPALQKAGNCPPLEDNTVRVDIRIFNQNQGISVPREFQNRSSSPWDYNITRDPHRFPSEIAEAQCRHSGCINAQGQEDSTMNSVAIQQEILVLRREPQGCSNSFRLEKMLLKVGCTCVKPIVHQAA
# T4: recombinant rat IL-17A (SEQ ID NO: 85) (rat, UniProt Q61453 18-150)
# T4 construct: also called rratIL-17A; rIL-17A
# T4 sequence: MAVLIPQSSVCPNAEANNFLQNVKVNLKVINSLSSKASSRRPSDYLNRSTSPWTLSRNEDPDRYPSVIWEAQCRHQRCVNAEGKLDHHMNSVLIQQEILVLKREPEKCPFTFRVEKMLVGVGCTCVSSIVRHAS
# T5: recombinant cynomolgus IL-17F (SEQ ID NO: 80) (cynomolgus monkey, UniProt Q96PD4 31-163 (human entry), limits assumed)
# T5 construct: also called cynoIL-17F; cyno IL-17F
# T5 chain: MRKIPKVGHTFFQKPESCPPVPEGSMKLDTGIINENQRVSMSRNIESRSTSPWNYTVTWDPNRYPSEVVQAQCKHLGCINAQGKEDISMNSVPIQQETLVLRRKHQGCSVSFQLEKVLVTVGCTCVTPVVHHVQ
# T6: recombinant cynomolgus IL-17A (SEQ ID NO: 79) (cynomolgus monkey, UniProt Q16552 24-155 (human entry), limits assumed)
# T6 construct: also called cynoIL-17A; cyno IL-17A
# T6 chain: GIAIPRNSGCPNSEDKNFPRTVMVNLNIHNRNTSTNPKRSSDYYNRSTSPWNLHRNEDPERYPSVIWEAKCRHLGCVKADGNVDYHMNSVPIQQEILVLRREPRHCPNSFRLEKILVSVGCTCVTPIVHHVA
# T7: human IL-17A (construct not stated) (human, UniProt Q16552 24-155, limits assumed)
# T7 sequence: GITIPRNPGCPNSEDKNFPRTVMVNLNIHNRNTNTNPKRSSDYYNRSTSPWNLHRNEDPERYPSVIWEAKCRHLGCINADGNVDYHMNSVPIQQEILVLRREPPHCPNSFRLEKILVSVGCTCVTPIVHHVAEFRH
# T8: recombinant human IL-17A (SEQ ID NO: 78) (human, UniProt Q16552 24-155, limits assumed)
# T8 construct: homodimer; also called huIL-17A; hulL-17A
# T8 sequence: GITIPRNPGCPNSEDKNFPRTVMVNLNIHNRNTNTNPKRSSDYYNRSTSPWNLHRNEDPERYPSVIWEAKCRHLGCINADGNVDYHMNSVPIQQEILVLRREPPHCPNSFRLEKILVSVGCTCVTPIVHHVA
# Key:
# [1] = target: T1, recombinant human IL-17F (SEQ ID NO: 77); test: ELISA, coated cytokine, Ab 10 µg/ml;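 note: antibodies incubated 3 h at room temperature on the coated wells, binding detected with alkaline phosphatase-conjugated anti-IgG secondary antibodies matching the species of each test antibody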
# Procedure: (§1) The antibodies of the disclosure were added at 10 μg/ml (100 μl/well) for 3 h at room temperature. […] They were added at 1 or 5 μg/ml, in PBS, 0.02% NaN₃ for 3 h at RT.
# (§2) Plates were then washed 4 times with PBS/0.05% Tween 20/0.02% NaN₃. Then, an alkaline phosphatase-conjugated goat anti-human IgG antibody (Sigma Cat# A9544) was added to the wells with human antibodies at a dilution of 1/20000 (100 μl/well). An alkaline phosphatase-conjugated goat anti-mouse IgG antibody (Sigma Cat# A1047) was added to the wells with mouse antibodies at a dilution of 1/10000 (100 μl/well). An alkaline phosphatase-conjugated rabbit anti-goat IgG antibody (Sigma Cat# A7650) was added to the wells with goat antibodies at a dilution of 1/1000 (100 μl/well) and an alkaline phosphatase-conjugated rabbit anti rat-IgG antibody (Sigma Cat# A6066) was added to the wells with rat antibodies at a dilution of 1/20000 (100 μl/well).
# [2] = target: T2, recombinant mouse IL-12 (R&D Systems …); test: ELISA, coated cytokine;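 note: antibodies incubated 3 h at room temperature on cytokine-coated plates, binding read out with alkaline phosphatase-conjugated anti-species IgG secondary antibodies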
# Procedure: as §1, §2
# [3] = target: T3, recombinant mouse IL-17F (R&D Systems …); test: ELISA, coated cytokine;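 note: antibodies incubated 3 h at room temperature on cytokine-coated plates, binding read out with alkaline phosphatase-conjugated anti-species IgG secondary antibodies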
# Procedure: as §1, §2
# [4] = target: T4, recombinant rat IL-17A (SEQ ID NO: 85); test: ELISA, coated antigen, Ab 1 µg/ml
# Procedure: (§3) A titration of the antibodies of interest on different antigens was carried out.
# (§4) Plates were then washed 4 times with PBS/0.05% Tween 20 (Sigma Cat# P7949)/0.02% NaN₃.
# (§5) Plates were then washed 4 times with PBS/0.05% Tween 20/0.02% NaN₃. Then, an alkaline phosphatase-conjugated goat anti-human IgG antibody (Sigma Cat# A9544) was added to the wells that received test antibody at a dilution of 1/20000 (100 μl/well) for 2 h 30 min at RT. To the wells, that received mouse mAb, an alkaline phosphatase-conjugated goat anti-mouse IgG antibody (Sigma Cat# A7434) was added at a dilution of 1/10000 (100 μl/well) for 2 h 30 min at RT. An alkaline phosphatase conjugated mouse anti goat IgG antibody (Sigma Cat# A8062) was added to the goat antibodies at a dilution of 1/50000 (100 μl/well) for 2 h 30 min at RT. Plates were then washed 4 times and 100 μl of the substrate (p-nitrophenyl phosphate tablets; Sigma; 5 mg Cat#N9389; 20 mg Cat#. N2765) dissolved in diethanolamine buffer pH 9.8, to give a final concentration of 1 mg/ml, were added to each well.
# [5] = target: T5, recombinant cynomolgus IL-17F (SEQ ID …); test: ELISA, coated antigen, Ab 1 µg/ml
# Procedure: as §3, §4, §5
# [6] = target: T1, recombinant human IL-17F (SEQ ID NO: 77); test: ELISA, coated antigen, Ab 1 µg/ml
# Procedure: as §3, §4, §5
# [7] = target: T6, recombinant cynomolgus IL-17A (SEQ ID …); test: ELISA, coated antigen, Ab 1 µg/ml
# Procedure: as §3, §4, §5
# [8] = target: T7, human IL-17A (construct not stated); test: cell-based or functional assay
# [9] = target: T8, recombinant human IL-17A (SEQ ID NO: 78); test: SPR (Biacore), captured antibody, antigen as analyte
# Procedure: (§6) One chip surface was coated and reused without significant loss of binding capacity. Ligand concentrations were chosen to start below the KD and to end at a concentration higher than ten times the KD.
# (§7) The kinetic traces were evaluated with the Biacore™ T200 Control Software version 1.0. The full set of these traces with increasing concentrations is taken together and is called a run. Two zero concentration samples (blank runs) were included in each analyte concentration series to allow double-referencing during data evaluation
# [10] = target: T6, recombinant cynomolgus IL-17A (SEQ ID …); test: as above
# Procedure: as §6, §7
# [11] = target: T7, human IL-17A (construct not stated); test: cell-based or functional assay; remark: listed apart in the source
Binder,O.D. [1],binding result [2],binding result [3],O.D. [4],O.D. [5],O.D. [6],O.D. [7],"EC50, in vitro neutralization activity, T = 0 weeks [8]","EC50, in vitro neutralization activity, T = 4 weeks at pH 8, 40°C (forced deamidation) [8]",Kd [9],koff [9],Kd [10],koff [10],"IC50, in vitro neutralization, Hu IL-6 sec [11]","IC50, in vitro neutralization, Hu IL-8 sec [11]"
"XAB4 (antibody, human IgG1, kappa, V domains shown, also called MB435 N56Q) VH: EVQLVESGGDLVQPGGSLRLSCAASGFTFSSYWMSWVRQAPGKGLEWVANIKQDGSEKYYVDSVKGRFTISRDNAKNSLYLQMNSLRAEDTAVYYCARDRGSLYYWGQGTLVTVSS VL: AIQLTQSPSSLSASVGDRVTITCRPSQGINWELAWYQQKPGKAPKLLIYDASSLEQGVPSRFSGSGSGTDFTLTISSLQPEDFATYYCQQFNSYPLTFGGGTKVEIKR",0.035 O.D.,no binding (tested: 10 µg/ml),no binding (tested: 10 µg/ml),1.77 O.D.,0.085 O.D.,0.049 O.D.,1.93 O.D.,0.048 µg/mL,47 ng/ml,–,–,–,–,–,–
"XAB1 (antibody, human IgG1, kappa, V domains shown, human IgG1/kappa monoclonal antibody; also called parental XAB1; XAB1 IgG) VH: EVQLVESGGDLVQPGGSLRLSCAASGFTFSSYWMSWVRQAPGKGLEWVANIKQDGSEKYYVDSVKGRFTISRDNAKNSLYLQMNSLRAEDTAVYYCARDRGSLYYWGQGTLVTVSS VL: AIQLTQSPSSLSASVGDRVTITCRPSQGIISALAWYQQKPGKAPKLLIYDASSLENGVPSRFSGSGSGTDFTLTISSLQPEDFATYYCQQFNSYPLTFGGGTKVEIKR",–,–,–,–,–,–,–,–,–,0.0403 nM,9.39e-05 s⁻¹,0.526 nM,0.000113 s⁻¹,4 nM,3 nM
